In patent publication US20110039770A1 (PHARMAGAP, published 2011):
Where two headings read alike, the source gives them in different places.

Key:
PKC-ε, purified isoform [1] = target: T1, PKC-ε, purified isoform (UniProt Q02156 1-737); assay: competition ELISA on coated purified PKC-ε vs anti-PKC ε antibody; PRE 200 µM
T1 construct: also called PKC-epsilon; epsilon
T1 sequence (looked up): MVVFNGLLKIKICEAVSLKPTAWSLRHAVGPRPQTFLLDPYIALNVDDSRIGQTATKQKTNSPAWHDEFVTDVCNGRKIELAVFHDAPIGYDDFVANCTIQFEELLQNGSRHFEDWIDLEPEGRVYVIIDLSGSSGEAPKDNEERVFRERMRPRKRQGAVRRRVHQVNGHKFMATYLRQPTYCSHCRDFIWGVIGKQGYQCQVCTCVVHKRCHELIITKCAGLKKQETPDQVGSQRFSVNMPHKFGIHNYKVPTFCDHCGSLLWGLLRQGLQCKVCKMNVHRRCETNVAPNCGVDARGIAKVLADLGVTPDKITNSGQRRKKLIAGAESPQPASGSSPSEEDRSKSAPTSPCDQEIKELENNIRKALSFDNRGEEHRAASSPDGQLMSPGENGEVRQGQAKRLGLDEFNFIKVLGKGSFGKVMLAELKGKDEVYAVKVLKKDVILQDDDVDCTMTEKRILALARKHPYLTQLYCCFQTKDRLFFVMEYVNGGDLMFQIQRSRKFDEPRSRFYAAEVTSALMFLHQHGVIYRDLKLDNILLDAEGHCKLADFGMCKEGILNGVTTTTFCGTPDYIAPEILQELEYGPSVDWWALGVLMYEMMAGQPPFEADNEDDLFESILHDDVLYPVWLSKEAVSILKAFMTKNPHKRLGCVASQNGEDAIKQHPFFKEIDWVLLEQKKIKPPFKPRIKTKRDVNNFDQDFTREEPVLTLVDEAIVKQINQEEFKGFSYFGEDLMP

PKC-ε, purified isoform [2] = target: T1, PKC-ε, purified isoform; assay: competition ELISA on coated purified PKC-ε vs anti-PKC ε antibody; PRE 50 µM
PKC-ε, purified isoform [3] = target: T1, PKC-ε, purified isoform; assay: competition ELISA on coated purified PKC-ε vs anti-PKC ε antibody; PRE 100 µM
[4] = target: T2, PKC-ζ in extracts of human cell lines (human, UniProt Q05513 1-592); assay: Western-blot competition, cell extracts: PRE at 10X/20X the anti-PKC zeta primary antibody concentration competes with that antibody; band densitometry (lower band = PRE bound)
T2 construct: Denatured on the Western blot membrane; also called PKC-zeta (cell extract)
T2 sequence (looked up): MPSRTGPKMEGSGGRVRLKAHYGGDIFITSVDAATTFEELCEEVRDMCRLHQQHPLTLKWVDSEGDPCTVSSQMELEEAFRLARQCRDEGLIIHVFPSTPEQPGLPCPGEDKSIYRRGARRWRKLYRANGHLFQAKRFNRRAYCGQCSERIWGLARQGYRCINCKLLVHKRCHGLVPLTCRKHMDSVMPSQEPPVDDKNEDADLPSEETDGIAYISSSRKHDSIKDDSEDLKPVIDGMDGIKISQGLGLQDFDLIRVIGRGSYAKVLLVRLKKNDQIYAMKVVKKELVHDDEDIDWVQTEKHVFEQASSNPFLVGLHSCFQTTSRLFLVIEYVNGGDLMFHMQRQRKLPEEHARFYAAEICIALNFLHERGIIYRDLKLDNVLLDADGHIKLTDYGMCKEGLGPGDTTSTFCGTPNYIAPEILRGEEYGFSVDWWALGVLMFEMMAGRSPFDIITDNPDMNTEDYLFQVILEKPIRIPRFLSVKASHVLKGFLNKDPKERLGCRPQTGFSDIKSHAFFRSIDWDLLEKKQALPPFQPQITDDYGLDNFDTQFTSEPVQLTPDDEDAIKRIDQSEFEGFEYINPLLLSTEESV

[5] = target: T3, PKC-βI in extracts of human cell lines (human, UniProt P05771-1 2-671); assay: Western-blot competition, cell extracts: PRE at 10X/20X the anti-PKC beta I primary antibody concentration competes with that antibody; band densitometry (lower band = PRE bound)
T3 construct: Denatured on the Western blot membrane; beta I splice form; also called PKC-beta I (cell extract)

[6] = target: T4, PKC-ι in extracts of human cell lines (human, UniProt P41743 2-596); assay: Western-blot competition, cell extracts: PRE at 10X/20X the anti-PKC iota primary antibody concentration competes with that antibody; band densitometry (lower band = PRE bound)
T4 construct: Denatured on the Western blot membrane; also called PKC-iota (cell extract)
T4 sequence (looked up): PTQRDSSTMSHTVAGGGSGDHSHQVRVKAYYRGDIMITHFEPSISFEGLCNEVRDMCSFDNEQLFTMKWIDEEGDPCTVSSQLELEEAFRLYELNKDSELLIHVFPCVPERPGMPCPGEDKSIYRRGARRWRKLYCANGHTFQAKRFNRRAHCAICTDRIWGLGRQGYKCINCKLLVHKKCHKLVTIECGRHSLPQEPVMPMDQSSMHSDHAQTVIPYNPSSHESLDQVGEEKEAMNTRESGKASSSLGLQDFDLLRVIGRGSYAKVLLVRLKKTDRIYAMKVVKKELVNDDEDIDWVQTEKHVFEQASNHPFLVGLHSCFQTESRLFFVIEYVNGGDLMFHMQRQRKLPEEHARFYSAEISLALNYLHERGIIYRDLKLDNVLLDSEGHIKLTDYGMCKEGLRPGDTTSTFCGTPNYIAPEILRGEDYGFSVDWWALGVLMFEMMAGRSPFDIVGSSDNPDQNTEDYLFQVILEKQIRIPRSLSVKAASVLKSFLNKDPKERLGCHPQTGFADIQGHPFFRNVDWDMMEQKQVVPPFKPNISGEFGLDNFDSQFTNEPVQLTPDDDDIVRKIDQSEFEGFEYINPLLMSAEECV

[7] = target: T5, PKC-ε in extracts of human cell lines (human, UniProt Q02156 1-737); assay: Western-blot competition, cell extracts: PRE at 10X/20X the anti-PKC epsilon primary antibody concentration competes with that antibody; band densitometry (lower band = PRE bound)
T5 construct: Denatured on the Western blot membrane; also called PKC-epsilon (cell extract)
T5 sequence (looked up): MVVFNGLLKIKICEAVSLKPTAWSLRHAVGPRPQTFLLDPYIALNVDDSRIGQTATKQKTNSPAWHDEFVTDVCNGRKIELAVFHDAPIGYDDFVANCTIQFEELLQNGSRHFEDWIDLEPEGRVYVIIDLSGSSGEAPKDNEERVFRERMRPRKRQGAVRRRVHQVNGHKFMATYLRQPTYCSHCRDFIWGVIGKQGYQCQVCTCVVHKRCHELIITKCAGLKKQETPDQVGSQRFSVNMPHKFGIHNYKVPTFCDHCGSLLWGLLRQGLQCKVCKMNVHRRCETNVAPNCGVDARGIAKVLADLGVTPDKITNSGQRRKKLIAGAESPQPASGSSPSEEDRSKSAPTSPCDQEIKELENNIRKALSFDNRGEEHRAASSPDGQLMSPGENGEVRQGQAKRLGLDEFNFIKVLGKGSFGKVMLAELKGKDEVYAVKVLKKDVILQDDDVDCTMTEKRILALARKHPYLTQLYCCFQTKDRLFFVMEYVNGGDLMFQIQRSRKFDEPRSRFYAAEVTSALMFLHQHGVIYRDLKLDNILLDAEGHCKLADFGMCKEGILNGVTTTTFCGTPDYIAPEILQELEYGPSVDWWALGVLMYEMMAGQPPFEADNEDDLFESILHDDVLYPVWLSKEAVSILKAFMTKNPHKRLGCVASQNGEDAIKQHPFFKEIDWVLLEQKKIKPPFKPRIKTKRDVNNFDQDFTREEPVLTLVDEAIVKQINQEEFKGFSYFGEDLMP

PKC-ε, purified isoform [8] = target: T1, PKC-ε, purified isoform; assay: purified isoform competition ELISA, summary grade
[9] = target: T6, PKC-βII, purified isoform (UniProt P05771-2 1-673); assay: purified isoform competition ELISA, summary grade
T6 construct: also called PKC-beta II; beta 2

PKC-βI, purified isoform = target: T7, PKC-βI, purified isoform (UniProt P05771-1 1-671); assay: purified isoform competition ELISA, summary grade
T7 construct: also called PKC-beta I; beta 1

[10] = target: T4, PKC-ι in extracts of human cell lines; assay: Western-blot competition, cell extracts: PRE at 10X/20X the anti-PKC iota primary antibody concentration competes with that antibody; band densitometry (lower band = PRE bound); remark: listed apart in the source
[11] = target: T2, PKC-ζ in extracts of human cell lines; assay: Western-blot competition, cell extracts: PRE at 10X/20X the anti-PKC zeta primary antibody concentration competes with that antibody; band densitometry (lower band = PRE bound); remark: listed apart in the source
[12] = target: T2, PKC-ζ in extracts of human cell lines; assay: as above; remark: listed apart in the source
[13] = target: T4, PKC-ι in extracts of human cell lines; assay: Western-blot competition, cell extracts: PRE at 10X/20X the anti-PKC iota primary antibody concentration competes with that antibody; band densitometry (lower band = PRE bound); remark: listed apart in the source
[14] = target: T4, PKC-ι in extracts of human cell lines; assay: as above; remark: listed apart in the source

T7 sequence (P05771 whole entry, canonical isoform): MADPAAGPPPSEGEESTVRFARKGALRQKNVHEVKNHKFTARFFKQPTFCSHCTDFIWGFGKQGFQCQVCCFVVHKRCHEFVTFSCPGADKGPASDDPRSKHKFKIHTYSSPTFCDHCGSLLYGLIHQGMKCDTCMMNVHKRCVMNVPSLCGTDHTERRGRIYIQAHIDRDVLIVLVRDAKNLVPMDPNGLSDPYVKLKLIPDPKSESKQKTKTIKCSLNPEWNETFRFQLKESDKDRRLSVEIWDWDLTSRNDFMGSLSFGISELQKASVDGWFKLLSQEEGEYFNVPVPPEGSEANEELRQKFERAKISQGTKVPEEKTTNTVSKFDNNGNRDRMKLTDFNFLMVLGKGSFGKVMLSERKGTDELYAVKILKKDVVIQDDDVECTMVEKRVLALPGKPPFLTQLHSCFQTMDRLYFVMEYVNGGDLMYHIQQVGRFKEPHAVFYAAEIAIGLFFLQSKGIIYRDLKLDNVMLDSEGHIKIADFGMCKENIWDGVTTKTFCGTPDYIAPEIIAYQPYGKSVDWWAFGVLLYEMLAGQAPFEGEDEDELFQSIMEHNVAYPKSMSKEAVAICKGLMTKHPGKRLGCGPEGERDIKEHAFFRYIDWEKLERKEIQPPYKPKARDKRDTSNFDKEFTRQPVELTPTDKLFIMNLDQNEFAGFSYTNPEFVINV
T6 sequence (P05771 other isoform, or with tags, fused parts or gaps limits assumed): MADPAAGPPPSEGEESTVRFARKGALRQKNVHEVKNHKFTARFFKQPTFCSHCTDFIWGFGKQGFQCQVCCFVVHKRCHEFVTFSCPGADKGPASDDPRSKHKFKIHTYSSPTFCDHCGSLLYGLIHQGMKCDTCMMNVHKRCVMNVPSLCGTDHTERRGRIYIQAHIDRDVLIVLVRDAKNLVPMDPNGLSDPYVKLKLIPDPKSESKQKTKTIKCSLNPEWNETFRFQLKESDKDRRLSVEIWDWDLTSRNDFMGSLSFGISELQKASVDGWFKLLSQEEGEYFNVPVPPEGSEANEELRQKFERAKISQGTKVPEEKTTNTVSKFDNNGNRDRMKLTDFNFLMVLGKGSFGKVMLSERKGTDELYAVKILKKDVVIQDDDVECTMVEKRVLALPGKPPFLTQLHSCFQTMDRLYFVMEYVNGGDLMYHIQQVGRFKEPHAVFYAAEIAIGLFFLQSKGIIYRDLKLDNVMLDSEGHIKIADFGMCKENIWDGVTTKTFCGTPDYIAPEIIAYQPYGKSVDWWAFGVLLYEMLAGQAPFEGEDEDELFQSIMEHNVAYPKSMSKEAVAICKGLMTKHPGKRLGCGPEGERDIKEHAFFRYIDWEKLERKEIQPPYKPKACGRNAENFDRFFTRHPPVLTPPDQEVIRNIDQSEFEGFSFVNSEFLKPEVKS
T3 sequence (P05771 2-671 limits assumed): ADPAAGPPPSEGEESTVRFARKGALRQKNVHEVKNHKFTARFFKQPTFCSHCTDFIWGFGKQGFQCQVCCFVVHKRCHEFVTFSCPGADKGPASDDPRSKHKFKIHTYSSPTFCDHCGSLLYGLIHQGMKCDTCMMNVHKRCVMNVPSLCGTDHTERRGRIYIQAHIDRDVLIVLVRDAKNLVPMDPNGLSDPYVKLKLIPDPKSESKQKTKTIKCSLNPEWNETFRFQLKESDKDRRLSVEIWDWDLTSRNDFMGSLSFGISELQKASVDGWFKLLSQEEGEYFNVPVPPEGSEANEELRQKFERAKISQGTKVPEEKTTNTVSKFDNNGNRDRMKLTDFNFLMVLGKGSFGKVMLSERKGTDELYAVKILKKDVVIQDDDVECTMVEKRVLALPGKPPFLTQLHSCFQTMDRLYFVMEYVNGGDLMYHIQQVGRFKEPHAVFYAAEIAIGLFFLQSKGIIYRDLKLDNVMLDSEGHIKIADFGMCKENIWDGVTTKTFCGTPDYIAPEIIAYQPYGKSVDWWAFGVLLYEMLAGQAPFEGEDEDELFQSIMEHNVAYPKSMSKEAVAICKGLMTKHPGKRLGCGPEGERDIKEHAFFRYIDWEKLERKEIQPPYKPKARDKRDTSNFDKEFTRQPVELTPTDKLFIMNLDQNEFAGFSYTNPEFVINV

Binder | relative binding capacity (PKC-ε, purified isoform [1]) | relative binding capacity (PKC-ε, purified isoform [2]) | relative binding capacity (PKC-ε, purified isoform [3]) | binding result [9] | binding result (PKC-βI, purified isoform) | also measured
Ac-RDAQNLI-NH2 (Ac-RDAQNLI-NH2; also called peptide recognition element 13) [PRE 13] | 0.85% | 0% | 0% | no binding | no binding | binding result [4]: no binding (tested: 20X the primary antibody concentration); binding result [5]: no binding (tested: 20X the primary antibody concentration); binding result [6]: no binding (tested: 20X the primary antibody concentration); binding result [7]: no binding (tested: 20X the primary antibody concentration); binding result (PKC-ε, purified isoform [8]): no binding
RRKKGGKDFVVKR (also called peptide recognition element 1) [PRE 1] |  |  |  | no binding |  | binding result [10]: no binding (tested: 20X the primary antibody concentration); binding result [11]: binds
Ac-AKGIQEVKGGKDAQNLIGISI-NH2 (also called peptide recognition element 5) [PRE 5] |  |  |  |  |  | binding result [12]: binds
ILEDKGGDAQNLIGISI (also called peptide recognition element 8) [PRE 8] |  |  |  |  | no binding | 
Ac-ISIGILQNADK-NH2 (also called peptide recognition element 7) [PRE 7] | 3.78% | 8.04% | 14% |  |  | binding result [13]: no binding (tested: 20X the primary antibody concentration)
Ac-AKGIQEVKGGDAQNLIGISI-NH2 (also called peptide recognition element 3) [PRE 3] | 31% | 34% | 31.5% |  |  | binding result [14]: binds
